Laboratory results published in the DeepSol protein solubility set.

Assay: soluble on expression in E. coli; label from the status in PepcDB or PDB records

| Sequence | soluble on expression in E. coli |
| --- | --- |
| MSLTDPAPEPEPPVEGQWTALTASPDTWDETKRADISYQLLLYSFADSDGDGYGDLNGVTQKLDYLNQLGVKALWLSPIHPCMSYHGYDVTDYTKVNPQLGTESDFDRLVTEAHNRGIKIYLDYVMNHTGTAHPWFTEASSSSESPYRNYYSFSEDPKTDIAAGKIAMITQEGAAGYNAAEWFQVSDETAAVKGLLKFTLDWSNAPSPILVVSTGTKADEDNPDTGTDNAKYLYYGEDICKKFYDKGNNIYELTVDFESTWGLLIRTSNASFWPSGTKYGASSSSEKLALNKDFKLTNAGNPANIMFDSQQITYFHSHFCTDWFADLNYGPVDQAGESPAYQAIADAAKGWIARGVDGLRLDAVKHIYHSETSEENPRFLKMFYEDMNAYYKQKGHTDDFYMIGEVLSEYDKVAPYYKGLPALFEFSFWYRLEWGINNSTGCYFAKDILSYQQKYANYRSDYIEATKLSNHDEDRTSSKLGKSADKCKLAAAVLLTSAGHPYIYYGEELGLYGTKDNGDEYVRSPMLWGDSYTTNYTDKTDATVSKNVKTVADQQADTHSLLNIYFSLTRLRNTYPALAEGNMTKHSVYNESQEKDYKPIAAWYMTKDNEKLLVIHNFGGTAMQLPLTDKIEKVLFVNGETQQNTDSDSYTLKLGGYASVVFKLGNEGHHHHHH | soluble |
| MSLSESVIADFVGKFNSEVAGRGDPIRGRVVLSQKRLVLAASEDDKLTIPLDSIFDIAVGQVPPDLGDFFDSTVTIAFEHRGKRLVAAIEAGDEKIEKFGTVLFKAIINGTETTVKERARVGGRVTEESFKTAKLFLTPGNVEFRRSDGSFNVDLKTVSDFDRNTREINGKGRPVLTVRHMKDGTAMTTLAAMASNRKMSILGRYLRREYAELMEEIEDVDLTKDKKEVLVAMYSTGDMDGMPLASILGKDSSQVSMILQDLAADGLVQDGSDGPTLTPTGKVVASRHLEDVNAEGHHHHHH | not soluble |
| GSHMTGPVTKEDLGRATWTFLHTLAAQYPEKPTRQQKKDVKELMTILSRMYPCRECADHFKEILRSNPAQAGSQEEFSQWLCHVHNTVNRSLGKLVFPCERVDARWGKLECEQKSCDLHGTSMDF | soluble |
| MSLFQSDLKLIVFQHGFFGERFVANLMNYPNSCPSYGACGIDGCTQCKEGLYNFSKNIIAVFSMPDPTTMPDFIENAEDFLPKVIPEADIAVAINLHPDVLAVMPEKLKGKVKALIVPVEEPRWCSPGLAKQIREKCDELGLEFAAPKPFCNLRPSEEHPTINRMIEEMRIGYPEFEIELLEDGKAYVRISRSQPCGCAYYIGVKLRGFDFSEVKEGKMRELWNVVAEAHHSYPCTASMERDNEYNETLLHVGGYIARHAVNRALGYEGDEDIPEHIKHIVLEGGSHHHHHH | soluble |
| MSSKLKISLSCGDYDRTRALFDGRAPIEGCEVTAVPLEPEEAFHRAFRYHEYDVTEISMSSHMMTTARGDNEYIAIPAFLSRVFRHSGIYVRTDRDIDKPQDLRGKTIGVPEYQITANVWIRGILEDAYGVKPQDIKWRRGGIEEPGRGERAPIELPDGIDLQQIPDDKTLSDMLEAGEIDGYIGARAPSCFLRGAPNVGRLFNDYLKTEQDYFRETRIFPIMHMVGIRRSLVEQNPWLPVSVYKAFLKAKMLAVKELNEICHLAVTLPWMVHHYNAARELMGDDYWPYGLDANRHVIETFARYHYGQGLSRRLVKPEELFAASSLDLSKIMAGDPNSLEHHHHHH | not soluble |
| SLPGMEHNHNHDHSSHGNHAMHDVGPADATYDLRFIDAMIQHHYGAIEMAKVTINQGYPGAGALASQIISAQSWEIANMLRQRQLRFPDAPIMPVRYTPGQSTVLSQLQPMTEADKVAMRMSGTMDMTGDRGKAFAAAMIPHHEMAIAMAEDALAKSGDSFVRSISWEIIRTQSDEIRRLRGLL | not soluble |
| MGHHHHHHSHMSASYISDPVIAGTNMTWSQEKQSLLMQGEILVETRSHTAWGGAVSACMYLPLRRSQVWQQITDYPRWVQYFPDITKSEVLQRGEVKRLYQAAQKAFFFFTAQVEIYLNVVEVIGHKIQFRMEKGTFVDFTANLELKDCGDGTLLIYGVQATPNIPVPSIFIQQAMNFELPTNMRKMRQVISNSVNS | not soluble |
| SLKPINYVPHFLCRISGEEINSISEIEFIKTLECLELSEGILRKINSLSADLTKDLHDCISLYKEQSISRVLINLKRDIFNMRFNRVQKYKLENISGFNHDKLNLWLNLAQEYQSTLHLMRETFKMEIQEKRGKLKQLFSNSEYIKAIQVSNTQLYENLLEYLQDNQSHPPKKMRNIEQSLINYLSRMIFKPTPFSSFTGLNYGFFSQEDSSFEINTKESKGHTRINMVYLKKIERMLLNRISIKNKCYVSLNQTINEEENYMFFRRGKDGTSQAFTGEAFIKIKKSELLKELIQYFEGISSMNIVEVVSFLSEKTNYETEALYNYLFKLEKMGVLDFSLGVSEQSDNYTKDLIENLLGIKDSLVEKSVSHLVEIEKIQAIFSESNYQKRYVLLKNLQEHIKKIYSLFDLKLESNDLTSLLFEDVSYKNTKIILNENQWKTHLDDFNLIKNLMPLFDDNILEKLSMNIIFKDIYGNKGAIDLLEFYREFNKYDKNLLWKKIRKNDTYLYLKKLRTEFYDYLETQINMGLDTIFLNKSWLKKFINKFPDLLKSKENYSFYFQIAYDNQDNRILVLNKIGPGLGKHFSRYGNLFLNSEYKENNRFINSLIEQYKKYDQNGGVLTDLNAVLGLNLNMHPNLLNYEITYPGCNPSKGINQVALKDIEVLYDSNSDQLKLYSKQYRQNVKLLPLGFLFPALSPSLYKFLCGFSESNGIEYSFWNKFLNEHNNNFSLLPRIMLGSVALDRRTWKINAKEIQKEFSKDTFETFINFHKWVKENQLPEDIFLRVANTMDAFSENELLNQDLGSWIAEIKQTKHRKPQYVNFNNYFHIDALRKIIKDVNNTVTIQEVYPHPDDVYYQKNSKKCVEFLVEVF | soluble |
| MEREKLELPENGKKLLLHSCCAPCSGEVMEAIVASGIDFSIFFYNPNIHPRKEYDLRKDENIRFAEKHGIPFIDADYDMDDWFKRAKGMEMEPERGIRCTMCFDMRFERTALYAYENGFDVISSSLGISRWKNMDQINDSGVRAAAQYPGITYWTYNWRKKGGSARMLEISKREKFYMQEYCGCAYSLRDTNKWRVEHGREKIRIGEKYYGDVTE | not soluble |
| MTIPLHTITSFRATFNPFSRSARPCRLLLSLLRNPSTTPASSPTHIDIQVTQLPRHSTQPPEMTVGFRGGKEVKIEVGKKQMKIGDVIEELARVGRSIEREETLKG | not soluble |
| MGSDKIHHHHHHMIGIEQYQKIQEYKELGLAQTKTAKALGITYSSVSKYWNMSEEDYVREAEQEKYHMDNYRQYILEQLKICPQIRDTNVYLKLMEAFPDLQVKRATFYRYMKALREQHGYQHTSKRKISPREVSPPGYEAQADFGQYKLKDMYGRIVRVYFFCMVLSYSRMKFVCFSPDPFTTKTGIKVHNYAFQCVWQV | not soluble |
| MKFRGNFVCQPRAGPAESRPTRPFTPRPSATGSLFMSNQHFVSPDLIRQGFSRAMSDMYREEVPLYGALMELVAEVNAQVLERQPALARHLQSSGELQRLDLERHGAIRVGSAAELATLARLFAVMGMQPVGYYDLTPAGVPVHSTAFRAVHEAALQVSPFRVFTSLLRLELIDNPELRSFAEQVLARRQIFTPQVLELIQQAEAAGGLDAEDAERFIRQALETFRWHHHATVTAAQYASLSAQHRLIADVVAFKGPHINHLTPRTLDIDEVQRLMPARGITPKAVIEGPPRRECPILLRQTSFKALEESVAFTDQAQSQGSHSARFGEIEQRGAALTPKGRELYDRLLNAARDALGDFPNEANAQRYNQLMQEHFREFPDSHPAMREQGLAYFRYFVSETGLAARNQPQRPTTLAALLAAGHLSAEPLVYEDFLPVSAAGIFQSNLGDDSQSHYAGQSNRQAFEAALGRPTLDELQLYAQTQQRSLEHCAATLGLPALLEHHHHHH | not soluble |
| GKDFTYNASLTFSHARNEIRNMDEPATKTAYRKQEGHPINQYFGLVCDGFVTQADLNNPDFPVSTFGNVQVGDLKYRDMNGDGFIDSRDETFIGYSDVPENTYALSLGCEYKGIGFSIMFQGVDHVSRYYDAEAMYAFVNGGKVKEHHLNRWNPNQSEAYNLTHASYPLLHYDSYGDHNQRKNSFFLKNGNFLRLKNIELSYSLPARWIRKVAMNECRVYVNANNLITWDKLDGLCDPESEGSNRYPIMKTVNFGVNIKF | not soluble |
| MGSDKIHHHHHHMLLKPDQRLKLDDTDDNLFYAYPRFVTHVDEGFIQQLTDLYRERLQPNTRILDMMSSWVSHLPEEIKFAHVEGHGLNAEELGRNPQLNHYFVQNLNENPGLPLPDQEFDAVLNCVSVQYLQYPEAVFSEIHRILKPGGVAIISFSNRMFYQKAIQAWRDASEPGRLELVKRYFASVPGFSTPEIIARKSTAPNFLQWLGAPGGDPFYAAIAHREGFA | not soluble |
| MTIFRPGLLTTIQDLGRTGYLKYGVIVSGPMDEYAHRMANLLVGNDEKAALLEMTFIGPTIQFTSDQLIAMTGGDLSPTIDGHSVPMYRPVFVKKGAVLSFGRCKTGCRSYLAIGGGIDVPKVMNSRSTYLRAKIGGFQGRALVEGDELICGAPPEQTERLVKTCQKGIVHSFATTKWSVVSSQRSRDGAEKVVRVTVGSHYEQFSEASQHKFFSETFQVTSKSDRMGYRLKGPTLERLEEQELISEPISVGTIQVPADGNPIILMADRQTTGGYPRIAHVIAVDLPIIAQAKPGAAIRFQQASLKEAERLYIRRAREFNELKTSIYLQTRLEHHHHHH | not soluble |
| MGHHHHHHSHMPSCVVNPMEHTHAATAALPAAGPVNLPTGISRVPTGYPSDLKPVTWNQHQLAHLQQMCSEASGTPAPGLTGKHAAGRELAGPGFVGKAPAYPQELCLAQSFHLKPPLEKPTPSPPVNGMAAPLAYPNGHYFQPLWNNILPTPNSDSSGSQDLAMPFHGGQPTGAPLDCAAAPGAHYRAGTGGGPVASQNSLMQTVDYLSGDFQQACFREQSLAMLSKAHRAPGNRAPDPTESRSLHIQHPGYR | not soluble |
| MVIDQTDPIYVLFHDEEWGVPVRDDKKLFELLVFSQALAEFSWPSILRRRDDFRKLFEEFDPSAIAQFTEKRLMSLRVNGCLILSEQKLRAIVENAKSVLKVKQEFGSFSNYCWRFVNHKPLRNGYRYGRQVPVKSPKAEYISKDMMQRGFRCVGPTVMYSFLQASGIVNDHLTACFRYQECNVETERETKSHETETKLDLHSPLLV | soluble |
| GPGSMPWEVKADNAYGIDYNKLIDKFGCKLITKDMIERMERLTGQKAHHFFRRNIFLSHRDFEKILDVYEKGELFYLYTGRGPSSESLHVGHLVPFLFTKYLQDTFKVPLVIQLTDDEKFIFKSNLTLEETHNYAYENMKDIIACGFDPELTFIFTNLEYIAELYPDILRIEKKISCSQIKSIFGFKDSCNVGKFAFPAVQAAPAFSSSFPHIFGGRTDIHCLVPHAIDQDPYFRMVRDVAPRLGYLKPSSIHSIFLPSLQGSQTKMSASVQNSSIFVNDNEESIRNKIMKYAFSGGQATEEEQRRLGANLDVDVSWQYLRFLMEDDEKLEEIGKKYSSGEMLSGEIKSILVQELVKLTKNHQKNREAINDDVIAKFTNKSREQLLKLFINKK | soluble |
| MINNSNDIGFIQDIAGLDKLRQKAVNGDENAGQSALTAAARQFESIFTSMMLKSMRDANSDFKSDLMSSQNEDLYRQMLDEQMASEFSSSGSLGLADMIVAQLSTGQTASEQKGEDGFQEAMRRVEHARKTASERSNEDLVAAVYPLRKTQAVQSTQFDSRHSFVTKLKPYADKAARMLGVDSSLLIAQAALETGWGQKMVKNARGNSNNLFNIKADRSWQGDKVATQTLEYHNNVPVVEKAAFRSYASFDESFNDYVRFLENNPRYTNALDHGGNSERFIHGIHRAGYATDPQYADKVLRVKAQIDQMNLL | not soluble |
